Reference: PMC6424611 (Journal of molecular biology, 2019)
Where no end group is shown, it is not given here. [ ]: non-standard residue; d: D form. The star is where a group is joined. Biotin = O=C1N[C@H]2[C@H](CS[C@H]2CCCCC(=O)*)N1; TTDS = NCCCOCCOCCOCCCNC(=O)CCC(=O)*; pS = N[C@@H](COP(=O)(O)O)C(=O)O

T1: MBP-fused PDZ domain of SNTB1 (human, UniProt Q13884 112-195)
T1 sequence (looked up): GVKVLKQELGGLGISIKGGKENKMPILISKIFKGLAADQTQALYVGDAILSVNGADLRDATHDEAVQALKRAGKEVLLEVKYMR

T2: MBP-fused PDZ domain 3 of PDZD7 (human, UniProt Q9H5P4 862-934)
T2 sequence (looked up): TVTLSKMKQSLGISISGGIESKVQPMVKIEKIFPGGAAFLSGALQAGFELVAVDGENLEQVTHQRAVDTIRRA

T3: MBP-fused PDZ domain of MAST1 (human, UniProt Q9Y2H9 967-1055)
T3 sequence (looked up): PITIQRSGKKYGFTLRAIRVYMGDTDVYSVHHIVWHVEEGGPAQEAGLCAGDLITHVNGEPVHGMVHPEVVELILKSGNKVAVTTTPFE

T4: MBP-fused PDZ domain of MAST2 (human, UniProt Q6P0Q8 1104-1192)
T4 sequence (looked up): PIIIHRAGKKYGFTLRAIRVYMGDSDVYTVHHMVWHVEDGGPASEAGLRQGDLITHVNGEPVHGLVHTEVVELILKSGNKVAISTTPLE

T5: MBP-fused PDZ domain of SNTG2 (human, UniProt Q9NY99 73-156)
T5 sequence (looked up): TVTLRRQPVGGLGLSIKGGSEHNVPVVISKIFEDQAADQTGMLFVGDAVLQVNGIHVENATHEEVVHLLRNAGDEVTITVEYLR

B1: RSK1 683-735 peptide, phosphorylated (peptide, UniProt Q15418 683-735, looked up)
peptide: QSQLSHQDLQLVKGAMAATYSALNSSKPTPQLKPIESSILAQRRVRKLPSTTL
modifications: also: monophosphorylated, site not given here
B2: biotinylated RSK1 725-735 peptide, phosphorylated at Ser732 (position -3) (peptide, UniProt Q15418 725-735, looked up)
peptide: {Biotin-TTDS}-RRVRKLP[pS]TTL
B3: PDZ domain 2 of MAGI3 (domain or fragment, human, UniProt Q5TCQ9 410-492, looked up)
chain: RASLKKSTMGFGFTIIGGDRPDEFLQVKNVLKDGPAAQDGKIAPGDVIVDINGNCVLGHTHADVVQMFQLVPVNQYVNLTLCR
B4: biotinylated RSK1 725-735 peptide, unphosphorylated (peptide, UniProt Q15418 725-735, looked up)
peptide: {Biotin-TTDS}-RRVRKLPSTTL
B5: MBP-fused PDZ domain 1 of PARD3B (domain or fragment, human, UniProt Q8TEW8 201-289, looked up)
chain: TRTVEISGEGGPLGIHVVPFFSSLSGRILGLFIRGIEDNSRSKREGLFHENECIVKINNVDLVDKTFAQAQDVFRQAMKSPSVLLHVLP
B6: MBP-fused PDZ domain 1 of PDZRN4 (domain or fragment, human, UniProt Q6ZMN7 224-314, looked up)
chain: TIVLERENDTLGFNIIGGRPNQNNQEGTSTEGIYVSKILENGPADRADGLEIHDKIMEVNGKDLSKATHEEAVEAFRNAKEPIVVQVLRRT

Key:
[1] = target: T1, MBP-fused PDZ domain of SNTB1; test: fluorescence polarisation
[2] = target: MBP-fused PDZ domain of SNX27 (human, UniProt Q96L92 43-136); test: fluorescence polarisation
[3] = target: T2, MBP-fused PDZ domain 3 of PDZD7; test: fluorescence polarisation
[4] = target: T3, MBP-fused PDZ domain of MAST1; test: fluorescence polarisation
[5] = target: MBP-fused PDZ domain of HTRA1 (human, UniProt Q92743 365-467); test: fluorescence polarisation
Sequence of MBP-fused PDZ domain of HTRA1 (Q92743 365-467): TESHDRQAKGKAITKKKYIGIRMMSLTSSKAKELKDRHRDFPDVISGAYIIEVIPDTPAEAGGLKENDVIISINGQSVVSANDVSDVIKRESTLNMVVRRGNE

[6] = target: T4, MBP-fused PDZ domain of MAST2; test: fluorescence polarisation
[7] = target: B5; test: fluorescence polarisation
[8] = target: MBP-fused PDZ domain 2 of GRID2IP (human, UniProt A4D2P6 279-356); test: fluorescence polarisation
Sequence of MBP-fused PDZ domain 2 of GRID2IP (A4D2P6 279-356): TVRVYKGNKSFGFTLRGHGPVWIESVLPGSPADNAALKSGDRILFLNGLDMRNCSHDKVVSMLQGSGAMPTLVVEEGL

[9] = target: T5, MBP-fused PDZ domain of SNTG2; test: fluorescence polarisation
[10] = target: B6; test: SPR
[11] = target: B5; test: SPR
PDZ domain 2 of MAGI3 = target: B3; test: holdup assay
[12] = target: B6; test: holdup assay
[13] = target: B5; test: holdup assay
[14] = target: B2; test: holdup assay
[15] = target: B4; test: holdup assay

## B1
[1]
  Kd: 4.5 ± 0.3 µM
[2]
  Kd: 32 ± 5 µM
[3]
  Kd: 46 ± 7 µM
[4]
  Kd: 92 ± 12 µM
[5]
  Kd: 33 ± 2 µM
[6]
  Kd: 48 ± 84 µM
[7]
  Kd: 31 ± 3.5 µM
[8]
  Kd: 85 ± 11 µM
[9]
  Kd: 4.8 ± 1.7 µM

## B2
[10]
  Kd: 7.1 ± 0.9 µM
[11]
  Kd: 6.1 ± 0.4 µM
PDZ domain 2 of MAGI3
  Kd: 40.8 µM
[12]
  Kd: 12.6 µM
[13]
  Kd: 35.1 µM

## B3
[14]
  BI: 0.28 ± 0.06
[15]
  BI: 0.28 ± 0.03

## B4
[10]
  Kd: 0.97 ± 0.18 µM
[11]
  Kd: 4 ± 0.3 µM
PDZ domain 2 of MAGI3
  Kd: 40.8 µM
[12]
  Kd: 14.4 µM
[13]
  Kd: 13.8 µM

## B5
[14]
  BI: 0.31 ± 0.02
[15]
  BI: 0.52 ± 0.05

## B6
[14]
  BI: 0.54 ± 0.03
[15]
  BI: 0.51 ± 0.02
